Where a chain is given by its changes, count along the chain named. In names and notes the source's numbering stands.
B1: S25E: FoxM1 phosphorylated point mutant of the S25 residue, expressed by lentivirus in A549 cells (protein, listed as Homo sapiens)
chain: MKTSPRRPLILKRRRLPLPVQNAPEETSEEEPKRSPAQQESNQAEASKEVAESNSCKFPAGIKIINHPTMPNTQVVAIPNNANIHSIITALTAKGKESGSSGPNKFILISCGGAPTQPPGLRPQTQTSYDAKRTEVTLETLGPKPAARDVNLPRPPGALCEQKRETCDGEAAGCTINNSLSNIQWLRKMSSDGLGSRSIKQEMEEKENCHLEQRQVKVEEPSRPSASWQNSVSERPPYSYMAMIQFAINSTERKRMTLKDIYTWIEDHFPYFKHIAKPGWKNSIRHNLSLHDMFVRETSANGKVSFWTIHPSANRYLTLDQVFKQQQKRPNPELRRNMTIKTELPLGARRKMKPLLPRVSSYLVPIQFPVNQSLVLQPSVKVPLPLAASLMSSELARHSKRVRIAPKVLLAEEGIAPLSSAGPGKEEKLLFGEGFSPLLPVQTIKEEEIQPGEEMPHLARPIKVESPPLEEWPSPAPSFKEESSHSWEDSSQSPTPRPKKSYSGLRSPTRCVSEMLVIQHRERRERSRSRRKQHLLPPCVDEPELLFSEGPSTSRWAAELPFPADSSDPASQLSYSQEVGGPFKTPIKETLPISSTPSKSVLPRTPESWRLTPPAKVGGLDFSPVQTSQGASDPLPDPLGLMDLSTTPLQSAPPLESPQRLLSSEPLDLISVPFGNSSPSDIDVPKPGSPEPQVSGLAANRSLTEGLVLDTMNDSLSKILLDISFPGLDEDPLGPDNINWSQFIPELQ
B2: S25A: FoxM1 protein with Ser25 substituted with alanine, non-phosphorylated point mutant, expressed by lentivirus in A549 cells (protein)
chain: B1 chain with E25A
modifications: left off: a dimerising Fc or GST
notes: FoxM1 protein with Ser25 substituted with alanine, non-phosphorylated point mutant, expressed by lentivirus in A549 cells

Tests used:
A549 lung cancer cells = test: Matrigel invasion assay of A549 cells expressing FoxM1 WT or point mutants; type: cell-based; conditions: for invasion of cancer cells (in words): Matrigel invasion assay, A549
Method: To observe the effects of the WT, phosphorylation, and non-phosphorylated point mutants of FoxM1 proteins on the invasion of cancer cells, an invasion assay using Matrigel was performed in lung cancer cells A549 expressing these mutants.
Specifically, after completely dissolving Matrigel at 4° C. for 16-20 hours, Matrigel was diluted with cold serum-free RPMI 1640 (4° C.) to 1 mg/ml. 100 μl of Matrigel mixture (1 mg/ml) was added to an […] 24-well insert and solidified in a 37° C. incubator for 12-20 hours. 1×10^5 cells/well of lung cancer cells A549 expressing each WT, phosphorylation, and non-phosphorylated point mutant FoxM1 proteins were diluted in serum-free RPMI 1640 (36° C.) and dispensed onto the insert. 0.5 ml/well of warm RPMI 1640 (10% FBS) at 36° C. was dispensed to the insert. For the positive control group, 0.5 ml of RPMI 1640 (10% FBS) containing 5 ng/ml TGF-β at 36° C. was used. The medium was changed once every 3 days, and the degree of invasion was observed. On the 7th day, when sufficient cancer cell invasion was observed, the medium was removed, washed with 1×PBS, and the cells inside the insert were scraped with a cotton swab and washed with 1×PBS to remove any remaining cells and Matrigel inside the insert. 500 μl of 4% paraformaldehyde was dispensed into the 24 wells with the outer surface of the insert, incubated at room temperature for 5 minutes, washed three times with 1×PBS, and stained with 0.05% crystal violet solution for 5 minutes. After 5 minutes, it was washed five times with 1×PBS and dissolved in DMSO. The degree of staining was determined by measuring the absorbance at 590 nm.
Specifically, Matrigel was completely solved at 4° C. for 16-20 hours and diluted to 1 mg/ml in cold serum free RPMI 1640 (4° C.). 100 μl of Matrigel mixture (1 mg/ml) was added into […] 24-well insert and solidified in a 37° C. incubator for 12-20 hours. A549 lung cancer cells expressing Mock or the experimental group FoxM1 WT protein were dispensed on the solidified Matrigel insert with 1×10^5 cells/well diluted in serum free RPMI 1640 (36° C.), and 0.5 ml/well of 36° C. of warm RPMI 1640 (10% FBS) were dispensed. For the positive control group, 0.5 ml of 36° C. RPMI 1640 (10% FBS) containing 5 ng/ml of TGF-β were dispensed. Then, once in 3 days, the medium was changed, and the level of invasion was observed. […] 500 ul of 4% paraformaldehyde was dispensed into 24 wells where the outer surface of the insert was placed, incubated for 5 minutes at room temperature, washed three times with 1×PBS, and stained with 0.05% crystal-violet solution for 5 minutes. After 5 minutes, they were washed 5 times with 1×PBS, and the degree of staining was dissolved in DMSO, and the wavelength was measured at 590 nm.

A549 cancer cells = test: Tail vein injection metastatic cancer animal model with A549 cells expressing FoxM1 mutants; type: in vivo, mice; conditions: for cancer metastasis to lung and tumorigenesis (tumorigenicity): A549 cells expressing the mutant injected into tail vein of mice; for degree of cancer cell proliferation by H&E and Ki67 staining: lung tissue of injected mice
Method: To observe the tumorigenic potential of cancer cells in animal models, the present inventors aimed to evaluate the tumorigenicity-promoting and -suppressing effects of cancer cells by using cancer cells expressing phosphorylation and non-phosphorylated point mutants of FoxM1 S25 residue.
Specifically, A549 cancer cells (2×10^6 cells) stably expressing FoxM1 protein containing point mutations were diluted in PBS and injected into the tail vein of mice. The mice were raised for 8 weeks, and then laparotomy was performed to observe cancer cell metastasis and tumorigenesis in organs.

A549 cells [1] = test: Caspase-3 assay in A549 cells over-expressing FoxM1 point mutants; type: cell-based; conditions: doxycycline 3 μg/ml 48 hours, control set to 1
Method: Furthermore, to observe the degree of apoptosis of cancer cells in A549 cells expressing each of the phosphorylation and non-phosphorylated point mutants of FoxM1, a caspase-3 assay was performed to measure the activity of the caspase-3 enzyme (FIG. 5F). A549 cells expressing each protein containing the phosphorylation and non-phosphorylation point mutation of FoxM1 were administered with 3 μg/ml of doxycycline for 48 hours to induce over-expression of each mutant. The cells were lysed and reacted with the fluorescence substrate of caspase-3 (Ac-DEVD-AMC) for 1 hour, and then the fluorescence value (Ex. 380 nm/Emi. 430 nm) was measured using an electron spectrometer (SpectraMax M4 system). The measured fluorescence value indicated the activity of caspase-3, and the relative measurement value in each experimental group was calculated and depicted by a graph, when the measured fluorescence value of the control group set to 1.

lung tissues = test: CD68 and CD163 immunostaining and immunoblot of lung tissues of injected mice; type: in vivo; conditions: for protein expression of CD68 and CD163, immunoblot: lung tissue lysates
Method: Additionally, the increase of macrophages around the tumor was examined by immunoblot using lung tissue lysates. […] Through the results of this study, it could be observed that the non-phosphorylated point mutant had the effect of inhibiting polarization into tumor-associated macrophages.
Furthermore, CD68, a marker for a broad range of macrophages, and CD163, a marker for tumor-associated macrophages, were analyzed in lung tissues of mice using immunostaining. It was determined that the expression of both CD68 and CD163 markers was increased in the lung tissues of mice injected with the FoxM1 WT protein over-expressed cells (FIG. 13D). Through the present results, it could be observed that there was an effect of promoting the polarization of M2 tumor-associated macrophages in lung cancer cells expressing the FoxM1 WT protein.

A549 cells [2] = test: MTT viability of A549 cells co-cultured with THP-1 cells and Jurkat cells; type: cell-based; conditions: ratios 1:0:0, 1:6:0, 1:0:6, 1:6:6, 48 h
Method: To investigate the polarization into tumor-infiltrating T lymphocytes (TILs) by A549^S25E cells, the expression levels of CD25 and CD29, which were expressed in TILs, were analyzed by qRT-PCR after co-culturing Jurkat cells (1.2×10^5 cells) and A549^S25E cells (4×10^4 cells) for 48 h. As a result, it was observed that there was a significant increase of 3 folds or more, in the expression of CD25 and CD29 in Jurkat cells co-cultured with A549^S25E cells. […] Additionally, to investigate the inhibitory effect of A549^S25A cells on tumor immune evasion by TAMs or TILs in the tumor microenvironment, the viability change was examined by an MTT assay analysis after co-culturing A549 cells expressing the FoxM1 phosphorylation or non-phosphorylated point mutant, THP-1 cells, and Jurkat cells at a ratio of 1:0:0, 1:6:0, 1:0:6, and 1:6:6 for 48 h. […] That is, there was the inhibitory effect of the cells expressing non-phosphorylated point mutant on the tumor immune evasion by TAMs or TILs in the tumor microenvironment. Therefore, the present invention provided the inhibitory effects of the non-phosphorylated point mutant of FoxM1 on tumor immune evasion.

| Molecule | invasion of cancer cells (in words) (A549 lung cancer cells) | absorbance value at 590 nm (invasion) compared to the control group (A549 lung cancer cells; Matrigel, 7th day, control set to 1) | cancer metastasis to lung and tumorigenesis (tumorigenicity) (A549 cancer cells) | cancer metastasis to lung and tumorigenesis (tumorigenicity) (A549 cancer cells; listed as S325E) | degree of cancer cell proliferation by H&E and Ki67 staining (A549 cancer cells) | activity of caspase-3 (apoptosis) (A549 cells [1]) | protein expression of CD68 and CD163, immunoblot (lung tissues) | expression of CD68 and CD163 markers, immunostaining (lung tissues; lung tissues of injected mice) | viability change of A549 cells co-cultured with THP-1 and Jurkat cells (A549 cells [2]) | invasion of cancer cells (in words) (A549 lung cancer cells; listed as FoxM1 non-phosphorylated point mutant) | invasion of cancer cells (in words) (A549 lung cancer cells; listed as non-phosphorylated point mutant protein of FoxM1) | cancer metastasis to lung and tumorigenesis (tumorigenicity) (A549 cancer cells; listed as FoxM1 protein containing the non-phosphorylation point mutations) | cancer metastasis to lung and tumorigenesis (tumorigenicity) (A549 cancer cells; listed as non-phosphorylated point mutant of FoxM1) | expression of CD68 and CD163 markers, immunostaining (in words) (lung tissues; lung tissues of injected mice) |
| --- | --- | --- | --- | --- | --- | --- | --- | --- | --- | --- | --- | --- | --- | --- |
| B1 | highest cancer cell invasion | ~40 times | significantly higher | highest tumorigenicity | high | lowest activity of caspase-3 | significantly higher | approximately 3 times | significantly increased | – | – | – | – | – |
| B2 | – | – | more effective in reducing the metastasis and suppressing the tumorigenic potential | – | significantly low | highest activity of caspase-3 | lower | – | reduced | lower relative absorbance | reduced | relatively low | no tumors were formed | significantly low |
